The record followed here is patent US8529906B2, “Compositions for inducing immune responses” (Novartis Vaccines and Diagnostics, Inc., priority 2003, dated 2013).

Entries after “also recorded” stand apart in the source; their conditions may differ.

The test system of this assay is EG7 (EL4 transfected with ovalbumin) and EL4 target cells. The assay can be described thus: CTL activity (51Cr release cytotoxic cell assay) of spleen cells from mice immunized with OVA formulations. The assay is classed as in vivo. The settings on record: subcutaneous, dose 10 μg, boosted at 14 and 28 days; for CTL activity relative to the other OVA formulations: comparison in words; for CTL response: percent specific 51Cr release. Here is the method: Ovalbumin, PLG/OVA-entrapped particles, small OVA-protein particles (250 nm) and large OVA-protein particles (2500 nm), produced as described above, were administered subcutaneously to mice (dose=10 μg). The animals were boosted at 14 and 28 days. […] two weeks following the last immunization and CTL activity assayed as described in Doe et al., Proc. Natl. Acad. Sci. (1996) 93:8578-8583.
Lymphocyte cultures were prepared as follows. Spleen cells (sc) from immunized mice were cultured in 24-well dishes at 5×10^6 cells per well. Of those cells, 1×10^6 were sensitized with synthetic epitopic peptides from EG7 (EL4 transfected with ovalbumin) and EL4 proteins at a concentration of 10 μM for 1 hour at 37° C., washed, and cocultured with the remaining 4×10^6 untreated sc in 2 ml of culture medium [50% RPMI 1640 and 50% alpha-MEM (GIBCO)] supplemented with heat-inactivated fetal serum, 5×10^−5 M 2-mercaptoethanol, antibiotics, and 5% interleukin-2 (Rat T-Stim, Collaborative Biomedical Products, Bedford, Mass.). Cells were fed with 1 ml of fresh culture medium on days 3 and 5, and cytotoxicity was assayed on day 6.
The cytotoxic cell assay was conducted as follows. EG7 (EL4 transfected with ovalbumin) and EL4 target cells used in the ^51Cr release assays express class I but not class II MHC molecules. Approximately 1×10^6 target cells were incubated in 200 μl of medium containing 50 μCi (1 Ci=37 Gbq) of ^51Cr and synthetic Ovalbumin peptides (1 μm) for 60 min and washed three times. Effector (E) cells were cultured with 5×10^3 target (T) cells at various EST ratios in 200 μl of culture medium in 96-well round-bottom tissue culture plates for 4 hours. The average cpm from duplicate wells was used to calculate percent specific ^51Cr release.

B1: small OVA-protein particles: Heat-stabilized ovalbumin protein particles formed by acetone coacervation, about 250 nm in diameter (protein, UniProt P01012 2-386, looked up)
Ovalbumin: GSIGAASMEFCFDVFKELKVHHANENIFYCPIAIMSALAMVYLGAKDSTRTQINKVVRFDKLPGFGDSIEAQCGTSVNVHSSLRDILNQITKPNDVYSFSLASRLYAEERYPILPEYLQCVKELYRGGLEPINFQTAADQARELINSWVESQTNGIIRNVLQPSSVDSQTAMVLVNAIVFKGLWEKAFKDEDTQAMPFRVTEQESKPVQMMYQIGLFRVASMASEKMKILELPFASGTMSMLVLLPDEVSGLEQLESIINFEKLTEWTSSNVMEERKIKVYLPRMKMEEKYNLTSVLMAMGITDVFSSSANLSGISSAESLKISQAVHAAHAEINEAGREVVGSAEAGVDAASVSEEFRADHPFLFCIKHIATNAVLFFGRCVSP
modifications: heat-stabilized particles
notes: Heat-stabilized ovalbumin protein particles formed by acetone coacervation, about 250 nm in diameter
Turning to B1, the “CTL activity relative to the other OVA formulations” value is “activity comparable to the large OVA-protein particles; also recorded: more active, e.g., elicited a greater immune response than the PLG/OVA-entrapped particles and ovalbumin alone formulations”; the CTL response entry is on record as “elicited a CTL response”.

B2: large OVA-protein particles: Heat-stabilized ovalbumin protein particles formed by acetone coacervation, about 2.5 μm in diameter (protein, UniProt P01012 2-386, looked up)
Ovalbumin: B1 Ovalbumin
modifications: heat-stabilized particles
notes: Heat-stabilized ovalbumin protein particles formed by acetone coacervation, about 2.5 μm in diameter
B2: the “CTL activity relative to the other OVA formulations” value was “more active, e.g., elicited a greater immune response than the PLG/OVA-entrapped particles and ovalbumin alone formulations”; the CTL response entry was “elicited a CTL response”.
